The values that follow come from article PMC3540084.

For assay [1], the target named is T1, recombinant human caspase-3 (human) (UniProt P42574).
T1 sequence: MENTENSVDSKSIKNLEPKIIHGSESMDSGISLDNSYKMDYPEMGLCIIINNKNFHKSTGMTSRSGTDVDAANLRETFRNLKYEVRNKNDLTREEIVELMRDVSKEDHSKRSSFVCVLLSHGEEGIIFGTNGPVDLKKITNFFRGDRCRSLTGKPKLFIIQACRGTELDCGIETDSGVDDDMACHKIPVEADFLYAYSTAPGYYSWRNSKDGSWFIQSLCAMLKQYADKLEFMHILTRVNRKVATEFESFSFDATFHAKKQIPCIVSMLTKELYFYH

Assay [2] addresses T2, recombinant human caspase-6 (human) (UniProt P55212).
T2 sequence: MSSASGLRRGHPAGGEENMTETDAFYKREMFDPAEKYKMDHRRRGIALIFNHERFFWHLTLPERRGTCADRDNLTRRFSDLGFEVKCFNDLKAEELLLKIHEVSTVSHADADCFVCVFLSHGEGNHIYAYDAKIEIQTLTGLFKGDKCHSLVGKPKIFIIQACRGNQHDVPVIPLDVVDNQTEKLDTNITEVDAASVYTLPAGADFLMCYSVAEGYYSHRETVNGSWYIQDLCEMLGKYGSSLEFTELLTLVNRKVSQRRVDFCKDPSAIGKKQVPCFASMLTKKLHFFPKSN

Assay [3] concerns the target T3, recombinant human caspase-7 (human) (UniProt P55210).
T3 sequence: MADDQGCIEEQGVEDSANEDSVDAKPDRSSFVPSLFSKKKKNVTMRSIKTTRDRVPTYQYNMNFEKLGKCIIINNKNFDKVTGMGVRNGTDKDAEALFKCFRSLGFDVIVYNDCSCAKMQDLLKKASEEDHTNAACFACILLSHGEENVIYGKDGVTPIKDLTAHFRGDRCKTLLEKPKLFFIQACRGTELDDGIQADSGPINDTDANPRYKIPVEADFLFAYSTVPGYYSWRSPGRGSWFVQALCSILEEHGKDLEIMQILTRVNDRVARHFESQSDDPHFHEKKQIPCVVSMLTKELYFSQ

Assay [4] concerns the target recombinant human caspase-9 (human) (UniProt P55211).
UniProt P55211, sequence (P55211 whole entry): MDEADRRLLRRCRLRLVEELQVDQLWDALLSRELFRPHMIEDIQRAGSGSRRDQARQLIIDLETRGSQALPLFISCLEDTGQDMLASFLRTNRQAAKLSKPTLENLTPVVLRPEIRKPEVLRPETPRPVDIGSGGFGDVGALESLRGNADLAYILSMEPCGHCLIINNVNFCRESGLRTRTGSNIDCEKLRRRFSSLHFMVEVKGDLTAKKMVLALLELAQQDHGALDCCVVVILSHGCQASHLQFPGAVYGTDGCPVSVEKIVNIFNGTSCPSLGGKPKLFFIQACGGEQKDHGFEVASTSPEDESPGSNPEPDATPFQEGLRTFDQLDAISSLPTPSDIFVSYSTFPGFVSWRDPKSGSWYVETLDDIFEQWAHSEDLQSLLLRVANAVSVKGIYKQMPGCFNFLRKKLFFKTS

Consider “recombinant human IL-1Ra (from UniProt P18510 26-177) (natural protein)”, for which the i 0,5 of inhibition of rh-caspase-3 activity (release of AMC from Ac-DEVD-AMC, substrate at Km concentration, 22°C) in assay [1] was found to be 2.5 µM. Further, in assay [2], the i 0,5 of inhibition of rh-caspase-6 activity (release of AMC from Ac-DEVD-AMC, substrate at Km concentration, 22°C) came out at 2.2 µM. Further, in assay [3], the i 0,5 of inhibition of rh-caspase-7 activity (release of AMC from Ac-DEVD-AMC, substrate at Km concentration, 22°C) was found to be 1.3 µM. Besides, in assay [4], the i 0,5 of inhibition of rh-caspase-9 activity (release of AMC from Ac-LEHD-AMC, substrate at Km concentration, 22°C) came out at 0.31 µM and the percent inhibition of rh-caspase-9 activity by 100 nM IL-1Ra turned out to be 41%.
